Test results: patent publication US20160136234A1

Molecular target: Mitogen-Activated Protein Kinase-Activated Protein Kinase 2 (human) (UniProt P49137)
Assay: cell-based or functional assay

MMI-0100 (peptide) gave an IC50 (radiometric kinase activity assay) of 22 µM.
